Reference: patent publication US20090202429A1
Each block holds one substance with its values, some of them ahead of it.

Experiments:
[1] = biological target: human platelet integrin alphaIIb beta3, on human platelets (human) (UniProt P08514); assay: cell-based or functional assay
[2] = biological target: human platelet glycoprotein Ib alpha (GPIb alpha), on human platelets (human) (UniProt P07359); assay: cell-based or functional assay
[3] = biological target: human platelet glycoprotein Ib alpha (GPIb alpha), on human platelets (human) (UniProt P07359)
[4] = biological target: murine platelet glycoprotein Ib alpha (GPIb alpha), on mouse platelets (mouse) (UniProt O35930); assay: cell-based or functional assay
[5] = biological target: human platelet glycoprotein Ib alpha (GPIb alpha), on human platelets (human) (UniProt P07359); assay: human whole blood perfused over surface-bound protein, parallel-plate flow chamber, 1600 s^-1

Chain of murine platelet glycoprotein Ib alpha (GPIb alpha), on mouse platelets (mouse) (O35930 17-734): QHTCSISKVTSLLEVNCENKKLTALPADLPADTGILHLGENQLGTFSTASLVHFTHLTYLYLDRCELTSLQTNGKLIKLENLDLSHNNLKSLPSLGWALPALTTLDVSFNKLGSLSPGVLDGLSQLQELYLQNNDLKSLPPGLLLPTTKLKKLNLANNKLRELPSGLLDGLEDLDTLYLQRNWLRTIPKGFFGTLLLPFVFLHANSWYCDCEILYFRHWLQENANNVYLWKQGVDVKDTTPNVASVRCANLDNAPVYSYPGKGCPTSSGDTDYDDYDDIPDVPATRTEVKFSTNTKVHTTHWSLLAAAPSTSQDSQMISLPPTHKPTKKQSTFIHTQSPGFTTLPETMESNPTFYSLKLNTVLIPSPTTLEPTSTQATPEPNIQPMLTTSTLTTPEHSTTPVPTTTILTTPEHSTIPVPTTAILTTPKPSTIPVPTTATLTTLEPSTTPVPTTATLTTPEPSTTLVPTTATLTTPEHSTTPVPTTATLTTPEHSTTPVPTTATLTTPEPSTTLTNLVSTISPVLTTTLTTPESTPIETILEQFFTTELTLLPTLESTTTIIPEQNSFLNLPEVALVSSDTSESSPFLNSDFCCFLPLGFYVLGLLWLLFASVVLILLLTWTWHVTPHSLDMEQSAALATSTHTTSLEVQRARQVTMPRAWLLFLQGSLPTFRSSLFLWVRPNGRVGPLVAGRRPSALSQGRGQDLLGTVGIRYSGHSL
Chain of human platelet glycoprotein Ib alpha (GPIb alpha), on human platelets (human) (P07359 17-652): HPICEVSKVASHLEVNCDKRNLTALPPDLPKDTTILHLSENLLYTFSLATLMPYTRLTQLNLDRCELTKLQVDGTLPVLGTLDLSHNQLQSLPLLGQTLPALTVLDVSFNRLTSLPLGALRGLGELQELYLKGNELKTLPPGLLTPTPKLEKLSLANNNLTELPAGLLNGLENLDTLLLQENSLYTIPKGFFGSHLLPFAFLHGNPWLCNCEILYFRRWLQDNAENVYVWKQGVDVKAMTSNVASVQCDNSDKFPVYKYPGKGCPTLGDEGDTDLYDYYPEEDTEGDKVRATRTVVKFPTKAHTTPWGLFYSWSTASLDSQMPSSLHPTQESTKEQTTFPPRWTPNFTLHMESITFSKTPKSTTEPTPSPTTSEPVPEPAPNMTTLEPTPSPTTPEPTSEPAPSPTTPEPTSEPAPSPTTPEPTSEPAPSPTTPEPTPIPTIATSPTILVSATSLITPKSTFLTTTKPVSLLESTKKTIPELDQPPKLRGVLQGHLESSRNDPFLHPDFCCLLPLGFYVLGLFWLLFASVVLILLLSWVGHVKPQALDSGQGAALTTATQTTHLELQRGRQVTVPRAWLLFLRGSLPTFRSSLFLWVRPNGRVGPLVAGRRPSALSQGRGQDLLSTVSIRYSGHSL
Chain of human platelet integrin alphaIIb beta3, on human platelets (human) (P08514 32-1039, chain 1 of 2): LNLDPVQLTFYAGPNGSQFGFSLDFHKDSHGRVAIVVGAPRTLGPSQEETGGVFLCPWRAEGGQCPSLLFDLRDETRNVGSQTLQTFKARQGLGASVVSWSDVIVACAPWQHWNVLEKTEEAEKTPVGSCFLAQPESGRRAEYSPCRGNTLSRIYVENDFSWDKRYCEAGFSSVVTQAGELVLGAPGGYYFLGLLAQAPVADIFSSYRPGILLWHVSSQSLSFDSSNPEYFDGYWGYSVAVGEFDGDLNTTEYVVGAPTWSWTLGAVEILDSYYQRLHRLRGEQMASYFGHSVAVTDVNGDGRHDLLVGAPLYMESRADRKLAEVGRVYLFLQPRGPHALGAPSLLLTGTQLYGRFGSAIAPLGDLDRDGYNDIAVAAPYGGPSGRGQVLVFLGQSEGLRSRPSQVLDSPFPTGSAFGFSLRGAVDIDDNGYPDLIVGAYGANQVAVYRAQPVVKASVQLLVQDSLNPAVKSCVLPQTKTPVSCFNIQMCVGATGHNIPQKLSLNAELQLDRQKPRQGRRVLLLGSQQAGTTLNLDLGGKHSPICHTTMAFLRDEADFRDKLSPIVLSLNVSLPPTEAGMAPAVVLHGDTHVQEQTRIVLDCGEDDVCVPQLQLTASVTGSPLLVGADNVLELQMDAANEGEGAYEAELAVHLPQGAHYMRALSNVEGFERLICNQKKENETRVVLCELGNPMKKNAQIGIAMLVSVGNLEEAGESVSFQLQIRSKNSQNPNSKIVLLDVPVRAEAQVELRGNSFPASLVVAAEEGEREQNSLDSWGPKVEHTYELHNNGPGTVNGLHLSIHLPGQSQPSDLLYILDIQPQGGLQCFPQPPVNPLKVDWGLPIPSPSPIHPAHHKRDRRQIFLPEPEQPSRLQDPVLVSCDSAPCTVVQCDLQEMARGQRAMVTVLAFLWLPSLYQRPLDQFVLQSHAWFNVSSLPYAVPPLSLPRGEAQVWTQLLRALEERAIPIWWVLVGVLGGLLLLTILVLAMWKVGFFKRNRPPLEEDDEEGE
Chain of human platelet integrin alphaIIb beta3, on human platelets (human) (P05106 27-788, chain 2 of 2, further chain): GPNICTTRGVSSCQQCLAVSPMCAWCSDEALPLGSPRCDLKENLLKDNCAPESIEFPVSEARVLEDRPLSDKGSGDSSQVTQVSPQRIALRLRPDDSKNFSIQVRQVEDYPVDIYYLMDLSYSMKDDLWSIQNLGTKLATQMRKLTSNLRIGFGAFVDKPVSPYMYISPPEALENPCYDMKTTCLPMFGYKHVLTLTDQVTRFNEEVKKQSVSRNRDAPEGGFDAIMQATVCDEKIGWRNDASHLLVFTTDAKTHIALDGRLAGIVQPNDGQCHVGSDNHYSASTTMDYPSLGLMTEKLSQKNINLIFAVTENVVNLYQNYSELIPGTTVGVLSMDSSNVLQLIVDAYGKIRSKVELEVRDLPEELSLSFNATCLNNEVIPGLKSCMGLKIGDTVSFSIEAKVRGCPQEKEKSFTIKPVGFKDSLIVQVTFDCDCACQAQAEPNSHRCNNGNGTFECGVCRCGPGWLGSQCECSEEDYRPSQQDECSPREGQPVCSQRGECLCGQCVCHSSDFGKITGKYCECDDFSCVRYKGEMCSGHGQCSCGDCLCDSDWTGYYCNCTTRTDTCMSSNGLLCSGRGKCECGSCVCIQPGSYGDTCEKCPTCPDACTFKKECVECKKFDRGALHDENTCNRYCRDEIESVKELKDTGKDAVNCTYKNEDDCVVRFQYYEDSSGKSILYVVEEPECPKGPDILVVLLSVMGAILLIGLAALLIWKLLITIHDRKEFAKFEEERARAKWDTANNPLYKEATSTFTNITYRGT

thrombus size in VWF 1326R>H mice after treatment of human platelets with mAb 7E3 [1]: 529 µm^2
Substance: function-blocking monoclonal antibody 7E3 (anti-human alphaIIb beta3)

thrombus size in VWF 1326R>H mice after pre-treatment of human platelets with mAb 6D1 [2]: 265 µm^2 | human platelet accumulation / mm2 on surface-immobilized murine plasma VWF 1326R>H at 1600 s^-1, human blood treated with mAb 6D1 [3]: 0 / mm2
Substance: function-blocking monoclonal antibody 6D1 (anti-human GPIb alpha)

ristocetin-induced platelet aggregation (RIPA), murine PRP, ristocetin ≧2.5 mg/ml [4]: 30% | share of human platelets in total thrombus area in WT mice [2]: 5.7% | platelet deposition, % of same-species control [5]: 10%
Substance: murine plasma VWF, wild type, Q8CIZ8 764-2813

thrombi formed on collagen-coated cover slips by whole blood of knock-in animals, 1600 s^-1, reduction against WT [4]: 70% | thrombus formation by whole blood of mutant mice over surface-immobilized collagen in vitro, reduction against WT [4]: 80% | translocation velocity of human platelets on immobilized plasma VWF [2]: 3.5 µm/sec
Substance: murine plasma VWF with the 1326R>H mutation (from homozygous VWF 1326R>H knock-in mice), Q8CIZ8 764-2813
average thrombus size at laser-injured arterioles of homozygous VWF 1326R>H mice infused with human platelets [2]: 8950 µm^2 | share of human cells in thrombi at laser-injured arterioles of homozygous VWF 1326R>H mice [2]: 91.7%
